Data reported in the DeepSol protein solubility set.

experiment: soluble on expression in E. coli; label from the status in PepcDB or PDB records

Row | Sequence | soluble on expression in E. coli
1 | MSALYRRFRPLTFQEVVGQEHVKEPLLKAIREGRLAQAYLFSGPRGVGKTTTARLLAMAVGCQGEDPPCGVCPHCQAVQRGAHPDVVEIDAASNNSVEDVRELRERIHLAPLSAPRKVFILDEAHMLSKSAFNALLKTLEEPPPHVLFVFATTEPERMPPTILSRTQHFRFRRLTEEEIAFKLRRILEAVGREAEEEALLLLARLADGALRDAESLLERFLLLEGPLTRKEVERALGLPPREALAEIAASLARGKTAEALGLARRLYGEGYAPRSLVSGLLEVFREGLYAAFGLAGTPLPAPPQALIAAMTALDEAMERLARRSDALSLEVALLEAGRALAAEALPQPTGAPSPEVGPKPESPPAPEPPRPEEAPDLRERWRAFLEALRPTLRAFVREARPEVREGQLCLAFPEDKAFHYRKASEQKARLLPLAQAHFGVEEVVLVLEGEKKSLSPRPRPAPPPEAPAPPGPPEEEVEAEEAAEEAPEEALRRVVRLLGGRVLWVRRPRTREAPEEEPLSQDEIGGTGI | soluble
2 | MGSDKIHHHHHHMDYKELLEVLRKDLNFKKVDLYQEKSNKTRYREIELGEKSPTIEELISFTDTLGIRLSEFLYRGDITPLAASYYGKRKIEVASLINNFPELEKQFPEIYKDRFKNLQCYTLFTLCLIISKSLNNSLYTFKNKDIRELKNFYKNREVILGADYAILSHLYMAVPEYSNELDFLTEKLFPINQSYGDIHDHAVQLCIKNAVTVFLEKKDFEKADYFLEQFDIVRKVPSFILDGTINLEMIYLKHLRNFLKKRNMEEYLKAVNIVNLFSQLGENDTYKELVKEVTEIARKENFEVPSSLNIIADTFEGVGYLKSDK | not soluble
3 | MIDQHQYIERESGSVCNERLFGDRLIRLLYHGARENAPFLFKMATSSWSSGLLGFINFDLPFGSNRRFLEECGVDLDECLDPPESLDTPRKVFERRIRYEQCRPMPEVQWAVVSPADARVLVGSFRDTSALFLKEKFFDFEELLGRHKEEWLRAFTGGEFAVFRLTPDKYHYNHTPVAGTVRDIYEIDGGYHSCNPGAVVIEATPFSKNRRVVTVIDTDVPGGTGVGLVAMIEVVALMIGQIVQCYSYEGYTAPRPVEPGMFLRRGVPKSLYRPGSSTDVLIFQRDRMHFADDIVRNMHDTRAASRFSHGFGRPLVETDVKVRSLIAVAVTNLEHHHHHH | not soluble
4 | MVIIMQFYKEENFKEMHGLRVPEDWEVVRIGDFIKYIKGKKPAVMVDEELEGYYPYLSTEYLRDGIASKFVKITNKEIIVNENDILLLWDGSNAGEIFLGKKGILSSTMVKLEQKNKIMDDLYLFYSLKLKESFLKSQTKGTGIPHVDKKIFENIKIPLPPLEEQKQIAKILSDFDNLIGTINKQIEVLNKAKKGMMKKLFTKGVFEHKSFKKSEIGEIPEDWEVVKLKEVVDIQSGKYFKYSEFCENGVKCLKIDNVGFGKIFWETVSFLPEDYLNKYPQLVLKSGDIVLALNRPIIGGKIKIGILKDIDEPAILYQRVGRFIFKSEKIDKQFLFYLLMSEYFKKELSKLLIGTDQPYIRTPVLLNIKIPLPHLEEQKAMAERLKSIDNLIEIKRKEKEQIEKAKKKIMNLLLTGKIRVKNLNF | soluble
5 | MGSDKIHHHHHHMTTPFKRIHLIVMDSVGIGEGPDAAAFNDEGSHTLKHTLEGFKQKLPHLEQLGLGNIAPLPVVSKVTHPGAFYTKLSEASVGKDTMTGHWEIMGLNIMQPFKVYPNGFPAELVKEIESMTGRKVVANRPASGTQIIDEWGEHQMKTGDLIVYTSADPVLQIAAHEDVIPLEELYEICEKVRELTKDPKYLIGRIIARPYVGEPGNFTRTSNRHDYALKPFGRTVMNSLKDSGYDVIAIGKINDIYDGEGVTEAIRTKNNMDGMDQLIEVVKKDFEGISFLNLVDFDALYGHRRDKEGYAQAIKDFDLRLPELMNHLREDDLVIITADHGNDPIAKGTDHTREYIPLLMFSPKIKDYHELSQDTTFSSIGVTIADNFNVELPKYGKSYLKEMGVEHQ | not soluble
